Data published in paper PMC8990011, “Bcl-xL acts as an inhibitor of IP3R channels, thereby antagonizing Ca^2+-driven apoptosis” (Cell Death and Differentiation, 2021).

Experiments:
6xHis-Bcl-xL = target: T1, 6xHis-Bcl-xL (human, UniProt Q07817-1 1-233, RED-tris-NTA dye on the His tag (Monolith His-Tag Labeling Kit) in MST); experiment: MST; 6xHis-Bcl-xL proteins labelled with RED-tris-NTA kept constant at 50 nM; GST proteins titrated down from 15 µM to 5 nM; Monolith NT, 5% excitation power, medium MST power; triplicates; settings: both partners purified
T1 construct: full-length Bcl-xL cloned in pET45b in the 6xHis-encoding reading frame; also called wild-type 6xHis-Bcl-xL; full-length 6xHis-Bcl-xL; source: E. coli BL21, purified (NiNTA)

6xHis-Bcl-xL^K87D = target: T2, 6xHis-Bcl-xL^K87D (human, UniProt Q07817-1 1-233, K87D, RED-tris-NTA dye on the His tag (Monolith His-Tag Labeling Kit) in MST); experiment: as above; settings: both partners purified
T2 construct: full-length Bcl-xL with K87D, made from pET45b-Bcl-xL by site-directed mutagenesis; also called full-length Bcl-xL^K87D; purified Bcl-xL^K87D; source: E. coli BL21, purified (NiNTA)
T2 sequence (Q07817 whole entry K87D): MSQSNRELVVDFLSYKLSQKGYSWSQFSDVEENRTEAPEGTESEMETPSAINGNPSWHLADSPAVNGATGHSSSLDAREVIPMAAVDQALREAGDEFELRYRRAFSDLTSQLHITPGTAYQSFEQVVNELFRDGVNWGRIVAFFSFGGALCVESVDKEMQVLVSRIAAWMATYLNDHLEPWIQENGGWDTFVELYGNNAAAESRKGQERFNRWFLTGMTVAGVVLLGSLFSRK

T1 sequence (Q07817 whole entry): as the sequence (Q07817 whole entry K87D) above, with D87K counted along it

| Kd (6xHis-Bcl-xL) | Kd (6xHis-Bcl-xL^K87D) | Binder |
| --- | --- | --- |
| ~495 nM | ~990 nM | GST-mIP3R1-Fragment 3 (domain or fragment) SIHGVGELMTQVVLRGGGFLPMTPMAAAPEGNVKQAEPEKEDIMVMDTKLKIIEILQFILNVRLDYRISCLLCIFKREFDESNSQSSETSSGNSSQEGPSNVPGALDFEHIEEQAEGIFGGSEENTPLDLDDHGGRTFLRVLLHLTMHDYPPLVSGALQLLFRHFSQRQEVLQAFKQVQLLVTSQDVDNYKQIKQDLDQLRSIVEKSELWVYKGQGPDEPMDGASGENEHKKTEEGTSKPLKHESTSSYNYRVVKEILIRLSKLCVQESASVRKSRKQQQRLLRNMGAHAVVLELLQIPYEKAEDTKMQEIMRLAHEFLQNFCAGNQQNQALLHKHINLFLNPGILEAVTMQHIFMNNFQLCSEINERVVQHFVHCIETHGRNVQYIKFLQTIVKAEGKFIKKCQDMVMAELVNSGEDVLVFYNDRASFQTLIQMMRSERDRMDENSPLMYHIHLVELLAVCTEGKNVYTEIKCNSLLPLDDIVRVVTHEDCIPEVKIAYINFLNHCYVDTEVEMKEIYTSNHMWKLFENFLVDICRACNNTSDRKHADSILEKYVTEIVMSIVTTFFSSPFSDQSTTLQTRQPVFVQLLQGVFRVYHCNWLMPSQKASVESCIRVLSDVAKSRAIAIPVDLDSQVNNLFLKSHNIVQKTALNWRLSAR |
| ~701 nM | ~1170 nM | GST-mIP3R1-LBD (domain or fragment) not shown |
